From patent US20230287338A1 (MINERVA BIOTECHNOLOGIES, published 2023) come the findings set out here.

For experiment [1], the target named is T1, NME7-AB (recombinant human NME7 comprising essentially the NDPK A and B domains, expressed in E. coli) (human, UniProt Q9Y5B8 92-376).
T1 construct: Monomeric; purified over NTA-Ni and by size exclusion; the purification described uses Ni-NTA; also called recombinant NME7; NME7 (NME7-AB construct); not shown: a Strep Tag II version was al
T1 sequence: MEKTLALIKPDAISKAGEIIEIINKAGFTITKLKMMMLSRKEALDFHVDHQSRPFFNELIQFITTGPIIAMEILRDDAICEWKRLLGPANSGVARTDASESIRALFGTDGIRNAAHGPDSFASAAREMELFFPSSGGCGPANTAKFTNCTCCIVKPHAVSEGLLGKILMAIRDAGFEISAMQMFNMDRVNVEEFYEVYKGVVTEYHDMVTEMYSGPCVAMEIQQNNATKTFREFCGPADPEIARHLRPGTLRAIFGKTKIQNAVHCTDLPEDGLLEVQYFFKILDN
The experiment can be described thus: sandwich ELISA, NME7-AB held on plate-bound PSMGFR, detection with streptavidin. Here is the method:
(§1) The PSMGFR peptide bearing a C-terminal Cysteine (PSMGFR-Cys) was covalently coupled to BSA using Inject Maleimide activated BSA kit (Thermo Fisher). PSMGFR-Cys coupled BSA was diluted to 10 ug/mL in 0.1M carbonate/bicarbonate buffer pH 9.6 and 50 uL was added to each well of a 96 well plate. After overnight incubation at 4° C., the plate was wash twice with PBS-T and a 3% BSA solution was added to block remaining binding site on the well. After 1 h at RT the plate was washed twice with PBS-T and NME7, diluted in PBS-T+1% BSA, was added at different concentrations. After 1 h at RT the plate was washed 3× with PBS-T and anti-NM23-H7 (B-9, Santa Cruz Biotechnology), diluted in PBS-T+1% BSA, was added at 1/500 dilution. […] After 1 h at RT the plate was washed 3× with PBS-T and binding of NME7 was measured at 415 nm using a ABTS solution (Pierce). […]
(§2) After 1 h at RT the plate was washed 3× with PBS-T and HisTagged PSMGFR peptide (PSMGFR-His) or biotinylated PSMGFR peptide (PSMGFR-biotin), diluted in PBS-T+1% BSA, was added at different concentration. […] After 1 h at RT the plate was washed 3× with PBS-T and binding of PSMGFR peptide to NME7 already bound to another PSMGFR peptide (which could not signal by anti-His antibody or by streptavidin) coupled BSA was measured at 415 nm using a ABTS solution (Pierce).

The target of experiment [2] is T1, NME7-AB (recombinant human NME7 …). The experiment can be described thus: gold nanoparticle aggregation assay. The procedure:
Gold nanoparticles of a diameter of 30.0 nm were coated with an NTA-SAM surface according to Thompson et al. (ACS Appl. Mater. Interfaces, 2011, 3 (8), pp 2979-2987). The NTA-SAM coated gold nanoparticles were then activated with an equal volume of 180 uM NiSO₄, incubated for 10 min at room temperature, washed, and resuspended in a 10 mM phosphate buffer (pH 7.4). The gold nanoparticles were then loaded with PSMGFR N-10 peptide ([…]-HHHHHH (SEQ ID NO:112)) at 0.5 uM final concentration, and incubated at room temperature for 10 min Recombinant NME7-AB protein expressed and purified from E. coli was added free in solution at the concentrations indicated. When particle-immobilized proteins bind to each other, or simultaneously bind to two different peptides on two different particles, the particle solution color changes from pink/red to purple/blue. If the protein added free in solution causes particle aggregation, it is strong evidence that the free protein dimerizes the cognate peptide, since binding to a single peptide would not induce two or more particles to be brought into close proximity to each other.
The NME7-AB is added free in solution at the concentrations indicated. Solution color change from pink to purple/blue from particle aggregation indicates binding between the MUC* peptide on the particles and NME7 free in solution. […]

Experiment [3] has the same target. The experiment can be described thus: sandwich ELISA, NME7-AB held on plate-bound PSMGFR, detection with HRP labeled anti-His-tag antibody. The procedure:
as §1, §2
Background: ELISA stands for enzyme-linked immunosorbent assay.

For experiment [4] the target is unchanged. The experiment can be described thus: ELISA, carrier-coupled PSMGFR-Cys on plate. Here is the method:
The PSMGFR peptide bearing a C-terminal Cysteine (PSMGFR-Cys) was covalently coupled to BSA using Inject Maleimide activated BSA kit (Thermo Fisher). PSMGFR-Cys coupled BSA was diluted to 10 ug/mL in 0.1M carbonate/bicarbonate buffer pH 9.6 and 50 uL was added to each well of a 96 well plate. After overnight incubation at 4° C., the plate was wash twice with PBS-T and a 3% BSA solution was added to block remaining binding site on the well. After 1 h at RT the plate was washed twice with PBS-T and NME7, diluted in PBS-T+1% BSA, was added at different concentrations. After 1 h at RT the plate was washed 3× with PBS-T and anti-NM23-H7 (B-9, Santa Cruz Biotechnology), diluted in PBS-T+1% BSA, was added at 1/500 dilution. After 1 h at RT the plate was washed 3× with PBS-T and goat anti mouse-HRP, diluted in PBS-T+1% BSA, was added at 1/3333 dilution. After 1 h at RT the plate was washed 3× with PBS-T and binding of NME7 was measured at 415 nm using a ABTS solution (Pierce).

Groups on a side chain read outwards from the residue. No end group written: not given here. maleimide = maleimide group on the activated BSA carrier, coupling the C-terminal Cys

B1: biotinylated PSMGFR peptide (PSMGFR-biotin) (peptide)
peptide: GTINVHDVETQFNQYKTEAASRYNLTISDVSVSDVPFPFSAQSGA
modifications: also: biotinylated (position not given here)
notes: also called second MUC1* peptide with biotin
For the molecule B1, in experiment [1], the binding result is reported as “binds”.

B2: PSMGFR N-10 peptide (His-tagged) (peptide)
peptide: QFNQYKTEAASRYNLTISDVSVSDVPFPFSAQSGAHHHHHH
notes: loaded on NTA-Ni-SAM coated gold nanoparticles; also called N-10 PSMGFR peptide; MUC1* peptide on NTA-Ni-SAM nanoparticles
Take B2: the binding result in experiment [2] is “binds”.

B3: histidine-tagged MUC1* extra cellular domain peptide (His-tagged PSMGFR sequence) (peptide)
peptide: GTINVHDVETQFNQYKTEAASRYNLTISDVSVSDVPFPFSAQSGAHHHHHH
notes: also called PSMGFR-His; HisTagged PSMGFR peptide
With B3, the binding result in experiment [3] is recorded as “binds”.

B4: PSMGFR peptide bearing a C-terminal Cysteine (PSMGFR-Cys) coupled to BSA (peptide)
peptide: GTINVHDVETQFNQYKTEAASRYNLTISDVSVSDVPFPFSAQSGAC([maleimide-BSA])
modifications: not fully specified
notes: Coated on the ELISA plate; also called PSMGFR-Cys coupled BSA; first MUC1* peptide of the sandwich ELISA
In the case of B4, the binding result in experiment [4] is given as “binds”.
